# Legend:
# [1] = substrate: COc1cc(/C=C/C(=O)OC[C@@H]2OC(O)[C@H](O[C@@H]3OC[C@@H](O)[C@H](O)[C@H]3O)[C@H]2O)ccc1O; assay: Kinetic analysis of RsChlE; format: biochemical, Rhizoctonia solani
# Experimental: (§1) Km and vmax values were calculated with non-linear regression using SigmaPlot 10.0 (Systat Software Inc., Chicago, USA). Blanks were carried out for all assays using water instead of enzyme. For calculation of kcat the molecular mass was determined using denaturing SDS-PAGE.
# (§2) After purification of the recombinant RsChlE from the culture supernatant of Pichia pastoris with Ni-NTA, the enzyme was biochemically characterized. The experiments were performed like for UmChlE. pH and temperature optimums were analyzed. […] Table 4: Substrate specificity of purified RsChIE.
# (§3) In the following, the kinetic constants were determined to decide if the enzyme has mainly chlorogenic acid esterase or feruloyl esterase activity. Table 5: kinetic analysis of RsChlE
# [2] = substrate: O=C(/C=C/c1ccc(O)c(O)c1)O[C@@H]1C[C@](O)(C(=O)O)C[C@@H](O)[C@H]1O; assay: Kinetic analysis of RsChlE; format: biochemical, Rhizoctonia solani
# Experimental: as §1, §2, §3
# [3] = substrate: COC(=O)/C=C/c1ccc(O)c(O)c1; assay: Kinetic analysis of RsChlE; format: biochemical, Rhizoctonia solani
# Experimental: as §1, §2, §3
# [4] = substrate: COC(=O)/C=C/c1ccc(O)cc1; assay: purified protein, by the assay type
protein,measurement,setting,value
RsChlE (Rhizoctonia solani) (protein) MGCDRPRQALHSLQEFTVMFSKWLPISAILLYGASAKALDCAGLFKKSQTLIKGINPFVAEVHPANVTFVPVGNIAYPDPVPDLPEFCRFGAEYNTSSKSKFRFEVWLPTSKKWNGRFAFIGNGGDAGGVNYADMAIPLAKYGFVVASTNTGHDGTHGDGTFAISNPESQIDFGHRAVHLSTVFAKTIAKSYYGKPSTYNYWIGCSSGGKQGLKSAQAYPADFDGVIAGAPAQWWPHLNGFTTHVNMLNAKATTPGATIPTSFFTALNQEVVAQCGKLDGVDDGIITNPRLCKPDLTRVACGSTNASPYVNSSNCLSKLQLVTLKAIYTNWTSSNGEFLFPTFEPGSEFGWPNTVNGVPYGPGPDYFLYQVYNKTSVQKLQINEAELQRLVAIADVTNPGQSRAIDPNLNPFFKRGGKLLQYHGFADPLIPSGSSLWYYEHVRSYFKNADLSDRYRLFMIPGVAHCSGGPGADAFGRPGQRSVSLGGAGQSLSFTPQYDMILATINWVEKGVAPKSLIGTKYKNNNIREGAKFTRLFCPYPQEAIYRGGNVNVASSYSCGVRA,Km,[1],"38,4 µM"
same,Vmax,[1],"23,3 U/mg"
same,kcat,[1],"29,13 s^-1"
same,Km,[2],"18,3 µM"
same,Vmax,[2],"23,4 U/mg"
same,kcat,[2],"29,25 s^-1"
same,Km,[3],"28,5 µM"
same,Vmax,[3],16 U/mg
same,kcat,[3],"20,00 s^-1"
same,Km,[4],"35,8 µM"
same,Vmax,[4],"26,5 U/mg"
same,kcat,[4],"33,13 s^-1"
same,kcat/Km,[4],"925,28 mM * s^-1"
